In patent US20250026856A1 (UCB, published 2025):

T1: human transglutaminase type 2 (TG2) (human, UniProt P21980 2-687)
T1 sequence: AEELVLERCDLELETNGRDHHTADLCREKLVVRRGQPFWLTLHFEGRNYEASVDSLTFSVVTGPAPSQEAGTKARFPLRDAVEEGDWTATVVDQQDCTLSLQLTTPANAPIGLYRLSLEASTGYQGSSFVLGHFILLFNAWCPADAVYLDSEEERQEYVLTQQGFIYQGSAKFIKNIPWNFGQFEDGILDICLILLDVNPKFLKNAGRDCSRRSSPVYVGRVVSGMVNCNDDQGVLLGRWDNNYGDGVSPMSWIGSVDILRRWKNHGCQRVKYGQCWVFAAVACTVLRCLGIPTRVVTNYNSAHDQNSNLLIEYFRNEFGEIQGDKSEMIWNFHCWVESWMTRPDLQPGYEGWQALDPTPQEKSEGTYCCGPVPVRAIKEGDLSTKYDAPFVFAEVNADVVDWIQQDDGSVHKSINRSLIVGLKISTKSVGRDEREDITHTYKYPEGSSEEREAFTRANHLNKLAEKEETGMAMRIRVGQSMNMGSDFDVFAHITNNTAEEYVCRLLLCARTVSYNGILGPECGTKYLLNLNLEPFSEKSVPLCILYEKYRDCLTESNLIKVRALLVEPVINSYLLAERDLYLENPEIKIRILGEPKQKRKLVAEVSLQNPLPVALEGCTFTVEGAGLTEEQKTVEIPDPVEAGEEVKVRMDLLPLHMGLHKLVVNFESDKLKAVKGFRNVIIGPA


How the values were obtained:
[1] = target: rabbit TG2 (rabbit); test: cell-based or functional assay
[2] = target: T1, human transglutaminase type 2 (TG2); test: cell-based or functional assay

IC50 against rabbit TG2 [1] | IC50 against human TG2 [2] | Binder
103 nM | 0.25 nM | Zampilimab (antibody, V domains shown) VH: EVQLLESGGGLVQPGGSLRLSCAASGFTLSTHAMSWVRQAPGKGLEWVATISSGGRSTYYPDSVKGRFTISRDNSKNTLYLQMNSLRAEDTAVYFCARLISTYWGQGTLVTVSS VL: DITMTQSPSSLSASVGDRVTITCKASQDINSYLTWFQQKPGKAPKILIYLVNRLVDGVPSRFSGSGSGQDYALTISSLQPEDFATYYCLQYDDFPYTFGQGTKVEIK
8 nM | 0.3 nM | rbBB7 (antibody, V domains shown) VH: EVQLLESGGRLVTPGGSLTLTCAASGIIFSSSAMSWVRQAPGKGLEWVATISSGGRSTYYPDSVKGRFTVSRDSSKNTLYLQMNSLRAEDTAVYYCAKLISPYWGQGTLVTVSS VL: AIKMTQTPSSVSAAVGGTVTISCKASQDINSYLTWFQQKPGQPPKTLIYLTNRLMDGVPSRFSGSGSGQEFLLTISGLECDDAATYYCLQYVDFPYTFGGGTKVVVK
